Data as given in US20150322128A1 (Sanofi, published 2015).
Like-named read-outs stand apart in the source and are kept apart here. Numbered stars: 1 amine (or outer) side, 2 acyl side, 3 side chain; on linkers, the order of the positions; unused ones are H or OH. Square brackets hold non-standard residues; d marks the D form. Side chains are listed from the residue outwards. Ends that are not written are not given here. * marks the point of attachment. γGlu = O=C(O)[C@H](CCC(=O)[*:2])N[*:1]; Palmitoyl = CCCCCCCCCCCCCCCC(=O)*; Aib = CC(C)(N)C(=O)O

T1: human GIP receptor (human, UniProt P48546 22-466)
T1 sequence (looked up): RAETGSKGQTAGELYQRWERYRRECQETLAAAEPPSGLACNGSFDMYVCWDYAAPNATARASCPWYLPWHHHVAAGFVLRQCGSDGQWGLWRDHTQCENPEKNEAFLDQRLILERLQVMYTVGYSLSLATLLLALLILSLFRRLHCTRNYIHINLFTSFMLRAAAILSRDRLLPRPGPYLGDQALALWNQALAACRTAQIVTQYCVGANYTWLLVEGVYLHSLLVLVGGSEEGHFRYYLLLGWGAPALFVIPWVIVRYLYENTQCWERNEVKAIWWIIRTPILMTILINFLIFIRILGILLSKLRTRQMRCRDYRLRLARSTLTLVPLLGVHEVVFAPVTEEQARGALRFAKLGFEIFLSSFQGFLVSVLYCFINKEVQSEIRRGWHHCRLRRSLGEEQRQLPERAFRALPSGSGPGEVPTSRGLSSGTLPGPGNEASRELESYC


Columns and labels:
Test in all cases: cell-based or functional assay
human GLP-1 receptor [1] = molecular target: T2, human GLP-1 receptor (human, UniProt P43220 24-463)
human GIP receptor [2] = molecular target: T1, human GIP receptor
human glucagon receptor [3] = molecular target: T3, human glucagon receptor (human, UniProt P47871 26-477)
human GLP-1 receptor [4] = molecular target: T2, human GLP-1 receptor; remark: listed apart in the source
human GIP receptor [5] = molecular target: T1, human GIP receptor; remark: listed apart in the source
human glucagon receptor [6] = molecular target: T3, human glucagon receptor; remark: listed apart in the source

T3 sequence (P47871 26-477): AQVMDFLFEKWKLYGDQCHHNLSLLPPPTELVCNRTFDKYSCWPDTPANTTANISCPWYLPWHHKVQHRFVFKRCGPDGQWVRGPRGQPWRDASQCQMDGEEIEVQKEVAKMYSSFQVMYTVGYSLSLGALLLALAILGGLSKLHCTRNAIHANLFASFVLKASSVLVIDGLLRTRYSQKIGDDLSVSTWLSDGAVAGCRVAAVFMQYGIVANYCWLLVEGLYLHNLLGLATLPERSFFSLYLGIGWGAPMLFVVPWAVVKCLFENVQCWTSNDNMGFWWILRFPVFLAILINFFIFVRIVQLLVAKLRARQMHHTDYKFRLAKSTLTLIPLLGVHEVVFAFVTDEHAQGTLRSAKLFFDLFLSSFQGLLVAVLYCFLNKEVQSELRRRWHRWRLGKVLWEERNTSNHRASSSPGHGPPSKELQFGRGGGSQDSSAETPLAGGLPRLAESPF

| Binder | EC50 hGLP-1R (human GLP-1 receptor [1]) | EC50 hGIP-R (human GIP receptor [2]) | EC50 hGlucagon-R (human glucagon receptor [3]) | EC50 hGLP-1R (human GLP-1 receptor [4]) | EC50 hGIP-1 (human GIP receptor [5]) | EC50 hGlucagon-R (human glucagon receptor [6]) |
| --- | --- | --- | --- | --- | --- | --- |
| H[dS]QGTFTSDLSKQK([γGlu-γGlu-Palmitoyl])EEEAARLFIEWL[Aib]AGGPSSGAPPPS-NH2 (N-terminus assumed; SMILES CCCCCCCCCCCCCCCC(=O)N[C@@H](CCC(=O)N[C@@H](CCC(=O)NCCCC[C@H](NC(=O)[C@H](CCC(N)=O)NC(=O)[C@H](CCCCN)NC(=O)[C@H](CO)NC(=O)[C@H](CC(C)C)NC(=O)[C@H](CC(=O)O)NC(=O)[C@H](CO)NC(=O)[C@@H](NC(=O)[C@H](Cc1ccccc1)NC(=O)[C@@H](NC(=O)CNC(=O)[C@H](CCC(N)=O)NC(=O)[C@@H](CO)NC(=O)[C@@H](N)Cc1c[nH]cn1)[C@@H](C)O)[C@@H](C)O)C(=O)N[C@@H](CCC(=O)O)C(=O)N[C@@H](CCC(=O)O)C(=O)N[C@@H](CCC(=O)O)C(=O)N[C@@H](C)C(=O)N[C@@H](C)C(=O)N[C@@H](CCCNC(=N)N)C(=O)N[C@@H](CC(C)C)C(=O)N[C@@H](Cc1ccccc1)C(=O)N[C@H](C(=O)N[C@@H](CCC(=O)O)C(=O)N[C@@H](Cc1c[nH]c2ccccc12)C(=O)N[C@@H](CC(C)C)C(=O)NC(C)(C)C(=O)N[C@@H](C)C(=O)NCC(=O)NCC(=O)N1CCC[C@H]1C(=O)N[C@@H](CO)C(=O)N[C@@H](CO)C(=O)NCC(=O)N[C@@H](C)C(=O)N1CCC[C@H]1C(=O)N1CCC[C@H]1C(=O)N1CCC[C@H]1C(=O)N[C@@H](CO)C(N)=O)[C@@H](C)CC)C(=O)O)C(=O)O) [SEQ ID NO: 16] | 0.0018 nM | 7.78 nM | 0.0354 nM | 0.0018 nM | 7.78 nM | 0.0354 nM |
| H[dS]QGTFTSDLSKQK([γGlu-γGlu-Palmitoyl])EEEAARLFIEWLKAGGPSSGAPPPS-NH2 (N-terminus assumed; SMILES CCCCCCCCCCCCCCCC(=O)N[C@@H](CCC(=O)N[C@@H](CCC(=O)NCCCC[C@H](NC(=O)[C@H](CCC(N)=O)NC(=O)[C@H](CCCCN)NC(=O)[C@H](CO)NC(=O)[C@H](CC(C)C)NC(=O)[C@H](CC(=O)O)NC(=O)[C@H](CO)NC(=O)[C@@H](NC(=O)[C@H](Cc1ccccc1)NC(=O)[C@@H](NC(=O)CNC(=O)[C@H](CCC(N)=O)NC(=O)[C@@H](CO)NC(=O)[C@@H](N)Cc1c[nH]cn1)[C@@H](C)O)[C@@H](C)O)C(=O)N[C@@H](CCC(=O)O)C(=O)N[C@@H](CCC(=O)O)C(=O)N[C@@H](CCC(=O)O)C(=O)N[C@@H](C)C(=O)N[C@@H](C)C(=O)N[C@@H](CCCNC(=N)N)C(=O)N[C@@H](CC(C)C)C(=O)N[C@@H](Cc1ccccc1)C(=O)N[C@H](C(=O)N[C@@H](CCC(=O)O)C(=O)N[C@@H](Cc1c[nH]c2ccccc12)C(=O)N[C@@H](CC(C)C)C(=O)N[C@@H](CCCCN)C(=O)N[C@@H](C)C(=O)NCC(=O)NCC(=O)N1CCC[C@H]1C(=O)N[C@@H](CO)C(=O)N[C@@H](CO)C(=O)NCC(=O)N[C@@H](C)C(=O)N1CCC[C@H]1C(=O)N1CCC[C@H]1C(=O)N1CCC[C@H]1C(=O)N[C@@H](CO)C(N)=O)[C@@H](C)CC)C(=O)O)C(=O)O) [SEQ ID NO: 31] |  |  |  | 0.0013 nM | 0.345 nM | 0.0074 nM |
